Test results published in the domain aggregation screens of Martell et al. (2025).

Assay: soluble fraction after stress (log2 fold change); higher = more stays soluble; pooled small domains, quantitative proteomics
Conditions: stress: 75 degC
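Note: 20 min heating vs room temperature control held 20 min.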

Sequence | soluble fraction (log2)
HMNHAPSLMRKIRRGLKEGRNPDDLLVNAKSISDYYYRSLSFYLLAPHFSSKSKQYKQVISLANS | -0.064
HMNHHTEQQLKALSNKVKDHRMRMRLLAVAHFKAGKNKADVARTLNVSRRMVNEWVANYFKGGVSALES | -3.43
HMNHLLYPNPANNFIWIKNSTSNTAVIYNLQGVMSKVEVSEEGKIDISRFSPGLYMIKQGERIYKFTIA | -1.75
HMNHLSYEQRLKIKEMLDGGFKKIDIARALGVHNATIYREIERGSVNGIYNPNKSEEQYRDHLSEK | 0.378
HMNHYIGVDRAKEIALNHANLSETDVVFTKEKLENDDGGAEYEIEFHSGRTEYDYTIDAASGNIIEYDVDY | 0.324
HMNIDGLIGKKALVTADIDNVNSKGQIKINGLEWTARSVDDEPIPMGTEVEITAISGVKAIVRKG | 0.139
HMNIEANLEDILRRAMPSAAKLILENSLNINKIIGTGKEGRITKGDVLLYLKDKNLILENILN | -0.079
HMNIEEAESILKEIKTVLTDKEYEVYTLRAKGFTYQEIASLLNTTTKSVDGALSRIKTKINNIK | -0.674
HMNIFKLYEENIGPLTPMIADILKEDEAEFPDYWIREAIEIAVKKNARNWKYVHAVLESWQKE | -3.47
HMNILKAPMPGLILDVIVKESDLVKKGDPVIILEAMKMENILSSPVDGIVKEIKVNPQQTVEKNNTLIKFE | -0.0843
HMNILNFSENIIKLRHKKGITQEELADFVGVTKASVSKWETKQSLPDIMLLPRLAAYFDVTVDELLGYEP | -2.16
HMNINHEINIKSKKKISILENNPNLSQFYLTKNPDQYNYNLVFSDKSELNKLKEKLESDNEVEDIDIRYG | -0.0517
HMNINTEMEKVSYSLGVNIASSLKQQGWELDAKSLSDAFVDVFNGNKLLIDEKEASSILQNYQQKIANK | 0.0321
HMNIQKYFAGREQFIELLEAVGIRTLEQFASADPSTVLPELHQAKRMLKLQTEIPSAPVFREWVNQALS | -0.636
HMNIQPAMLNAANGGVAWKERGISMSQIMKRNAHTAEGSQKLWDYAFENFFQKNIDAGNIRDDR | -0.157
HMNIVKGDTTANVRVVQQRLYNLGYYTYKVDGIWGTRTKTAVKKFQKDKGLVADGIVGAKTEKALGITLT | -2.35
HMNIVVSSIDSNSFEIVNKETGEQAVISYDKETKKGFVLINGVKKEFFQDGNKVYYDGYVIAE | 0.0406
HMNKDEFLNELKSYLSILEDEEQADILEEYTQHIDMKISTGLSEAEAIRDFGNVSELAAQILEAY | -0.465
HMNKIGTIVSINGPIVKTAGDVGFVMHEMVYVGKEKLVGEVIGLTTDFTIVEVYEETSGIKPGETIEGT | -1.87
HMNKKEIISVLEKIIPPSQIKNINIFGSELVIDLNIDNPSLHAKKKLEKSIMSSFDENLKIIVNFSVE | -0.252
HMNKLSISALAETVSTKRKEKSMTQQDLSDATGINRALISRLEQKDFIPSIPQLEKLEEILGFELEEVF | -0.324
HMNKMHKLPSVSEILNKVRLQKIHNESFIKFKIKEEIDRYRKLAKKDQLFLSRDEITYEIIEKLLNFSMPS | -3.97
HMNKMIDAPDLTGLSLEDAKLVLEANKLQLGTVSHEPSDKPEDVVISQDPMEGQEIQQGGKVNLVVSYGD | 0.305
HMNKNNLRNVSSKIRKSRRVLNLSQAELSKKLDISPSYLNLIESGKRPITVPLLIKLGNILGISLKDL | -1.89
HMNKNQIGTNAGIVWKLLSDNVHWEYDKLKHASGLSDRDLNAAIGWLAREDKIDFDIDEQHDRLFL | -0.515
HMNKPKIIINSVDDSVFSDYVKDSLSIAEVARSIGIDNNKINTSVYREIHKRIDSLKLDTSHFTGGAWN | -0.235
HMNKPLFVYPNPVHQGKINLSKATNFMVVDLLGQTVNKTNYGKDFSIDNLPNGVYFIKTTEGEIIKFMK | -0.701
HMNKQEFLNTLRIIFKKANVLDVESIIDVYEEHFAVGYEKGLNDEQIIKSLGTPKEIYTSYVEAGI | -1.31

Sequence | soluble fraction (log2)
HMNKSGVVLIRVTVDASGRVTSAAYEPKGSTTSDVELVAEARKAALRTRFTESRTVIEGGVITYIFKL | -2.59
HMNKSYTVPDVRGMTVEEAQEAEGVKDIFTVHVQGTRKTDEYQPGQIVEQDPIAGRTRKSNFVIEVYVAE | -0.34
HMNKTQLQIEDEVLKPLIAEIFSKSKGRFGARKIRSKLMGLGYTASERRILRLMKELGLSSAG | -1.19
HMNKTVKIPNVSNLSREDAESVLKENGISVNSEVKQIESDTIEKGKVVKTDPSIGTSVKKGRSITIYVSSG | 0.544
HMNKWMQLASEEDKKLFNEAPKEIQDSITESAKFFDIRTKADVDTFWANTGLRQMKQQAMLNESFVNEY | -0.0697
HMNLDMVINKIGIVTEDIKQDKIGEVKVLGKRWSAYSNTELKKDEKVKILSIDGVKLKVEKI | -0.135
HMNLGAHVYWRNHRAYGDFREYEDVGGGREALALPGSTWGTKDPRVAQALFAARLTEFQEARVGR | -0.989
HMNLGVIYSLKAEVRSEPNTFSTRLFEVHEGLKVSINQLENDWVEIELLDGKTGWISNDQIRLI | -2.61
HMNLIFFSENLSTFRKEKGWTQSELAEKLGVKANTISNYEKGISTPDYKIIAKLRELFEMPTDVLLYSNLS | -1.86
HMNLLDYDFFEKMSSKEQEEIVEKVYIDFLNKSTGTNSPFYLKLFEKGKKSYIVNWLNENNF | -1.77
HMNLLSPREKQSLTLYASGLTLREVASELKLSPNSVGKFISRGKFKLNKSGAIVNSKTSIYLELKKRNLI | -0.147
HMNLNESVELGQELLSQALAQLGIRGELSPSTIDKLLAESSAKSMEELYADIGIGKRMPALVARHIFGLMD | -0.627
HMNLQAYQSVLDKLNEEYGTTFRFPTEEELHEVGLTNTVDPRTATVSATEFEKYMRPIAERISQANL | -0.205
HMNLSAREWTSADGSRTFQGELTGFQDGKVKVRRSDGKSLVFAIELLSESDQQFIKTNQLVIAKKDED | 0.0766
HMNLYHALDQQGEVYLTIPPRQSGRGKVTLMIDGRVREMDAMTDGDALKTGSKVRVTEILDENALKVEAM | 0.215
HMNMAEETLDTAAKILKAAEEEFMEKGYGNAKMMSIAARAGVSHSMLHYYYRSKGKLFQMIFDEKA | -1.41
HMNMAEQGISLDSEAGKARFVSQALPLLKQLPDGVFKQRMLNQLADRVEVTADFIAQQLAQLKAA | -0.0979
HMNMAVELEDGTQIFVFSEDGEFAGKRAVIADEEGRPTEENAPAGTHTLRDGRSIVVGEGGVIESVVET | -0.0672
HMNMEYQKAINHIVQMVKDGQLIVGSKIPSERDLSESLGIGRNSTREAISILRGMGLVESRHGSGNYIAKD | -0.2
HMNMGEKIRSLIGQFGVTSEDLKNLSVANLLIRMNQEAGDSKTKGILASLLETVNKAGVGNLTPDALGIK | -0.164
HMNMLGEQVRNIRKSRGFTLKALAEQTGLSIGYISQIERNLTDPSLSTLRKISAALDVPTYLFMG | -2.13
HMNMLGSNIKYLRNRHKLSQQELSEKLGVPRSSLSDYERGHTQVGLDSLIKLADIFDVKIDDLLRSNLSHR | -0.439
HMNMPHEIDANFISSLGRLIDNHGKNYGDFQIFREMFLDYFPRFDELSSNNKEKINRRLYKFFETLFG | -2.09
HMNMVEESVKKSSQWAVFEPNTISTWVKIQAMIENYLYQKWKEGALAGAKPEHAFFVKVGLGETM | 0.258
HMNNEISINGNKIYFNKNISKVFIYDISGKLIKHKNNFNNNFIDLSEFNSAFYIIKALDINENYTTKKIFL | -1.69
HMNNFTPEHLEKDIEGSLFFRRLKETAREEPGSLTVAQKDFIQMWHDQADGVYTLRQVFVQTAFDHVRSL | 0.315
HMNNFTQSALDTIDGIGKRRKKLLLNHFGSVKLIENASIEDIKKIDGISDLVANKIYNFFNKN | -1.04
